In the test the target is PD-L1 (UniProt Q9NZQ7). Nature of the test: cell-based or functional assay.
PD-L1, sequence (Q9NZQ7 19-290 limits assumed): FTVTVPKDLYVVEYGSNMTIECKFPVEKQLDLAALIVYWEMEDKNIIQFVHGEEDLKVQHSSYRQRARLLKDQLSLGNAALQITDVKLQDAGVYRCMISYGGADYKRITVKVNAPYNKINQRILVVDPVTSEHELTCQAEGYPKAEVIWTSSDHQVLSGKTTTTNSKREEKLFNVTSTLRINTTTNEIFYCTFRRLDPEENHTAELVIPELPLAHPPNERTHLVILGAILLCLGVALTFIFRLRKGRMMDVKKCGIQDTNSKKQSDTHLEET

Substance “anti-PD-L1 antibody (chimera of the variable domain of atezolizumab with human IgG2 domains)” came in with an IL2 concentration (% over isotype control), mixed lymphocyte reaction (% over isotype control) of 247.

(Values after patent US20200369769A1.)
